T1: endogenous 14-3-3ζ (YWHAZ) in A549 cells (human (endogenous in A549)), P63104
T1 chain: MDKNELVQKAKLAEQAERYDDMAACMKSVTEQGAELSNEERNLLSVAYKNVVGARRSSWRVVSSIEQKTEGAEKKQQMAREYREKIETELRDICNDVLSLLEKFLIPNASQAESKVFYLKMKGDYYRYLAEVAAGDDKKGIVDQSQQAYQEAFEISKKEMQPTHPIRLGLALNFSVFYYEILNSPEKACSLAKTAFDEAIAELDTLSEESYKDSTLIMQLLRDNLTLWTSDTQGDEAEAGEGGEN

T2: purified recombinant 14-3-3ζ, P63104
T2 chain: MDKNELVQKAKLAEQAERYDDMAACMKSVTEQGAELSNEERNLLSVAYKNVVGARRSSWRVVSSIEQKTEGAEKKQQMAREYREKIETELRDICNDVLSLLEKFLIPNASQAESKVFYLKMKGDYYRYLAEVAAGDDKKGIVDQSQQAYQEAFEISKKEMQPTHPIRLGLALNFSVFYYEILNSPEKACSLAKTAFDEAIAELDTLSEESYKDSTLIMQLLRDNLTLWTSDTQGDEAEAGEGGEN


Key:
Conditions in all cases: remark: other sources report otherwise
[1] = molecular target: T1, endogenous 14-3-3ζ (YWHAZ) in A549 …; assay: cross-linking
[2] = molecular target: T1, endogenous 14-3-3ζ (YWHAZ) in A549 …; assay: native gel or EMSA
[3] = molecular target: T2, purified recombinant 14-3-3ζ, P63104; assay: cross-linking

Row | stoichiometry N [1] | stoichiometry N [2] | stoichiometry N [3] | Binder
1 | 2 | 2 |  | endogenous 14-3-3ζ (YWHAZ) in A549 cells, P63104 1-245 (natural protein) MDKNELVQKAKLAEQAERYDDMAACMKSVTEQGAELSNEERNLLSVAYKNVVGARRSSWRVVSSIEQKTEGAEKKQQMAREYREKIETELRDICNDVLSLLEKFLIPNASQAESKVFYLKMKGDYYRYLAEVAAGDDKKGIVDQSQQAYQEAFEISKKEMQPTHPIRLGLALNFSVFYYEILNSPEKACSLAKTAFDEAIAELDTLSEESYKDSTLIMQLLRDNLTLWTSDTQGDEAEAGEGGEN
2 |  |  | 2 | purified recombinant 14-3-3ζ, P63104 1-245 (natural protein) MDKNELVQKAKLAEQAERYDDMAACMKSVTEQGAELSNEERNLLSVAYKNVVGARRSSWRVVSSIEQKTEGAEKKQQMAREYREKIETELRDICNDVLSLLEKFLIPNASQAESKVFYLKMKGDYYRYLAEVAAGDDKKGIVDQSQQAYQEAFEISKKEMQPTHPIRLGLALNFSVFYYEILNSPEKACSLAKTAFDEAIAELDTLSEESYKDSTLIMQLLRDNLTLWTSDTQGDEAEAGEGGEN

From article PMC12381585
